The results in this text go back to patent US20110053865A1 (published 2011).

Experiment [1] addresses T1, recombinant human IL-23 (p19/p40) (human, UniProt Q9NPF7 20-189; P29460 23-328).
T1 chain 1: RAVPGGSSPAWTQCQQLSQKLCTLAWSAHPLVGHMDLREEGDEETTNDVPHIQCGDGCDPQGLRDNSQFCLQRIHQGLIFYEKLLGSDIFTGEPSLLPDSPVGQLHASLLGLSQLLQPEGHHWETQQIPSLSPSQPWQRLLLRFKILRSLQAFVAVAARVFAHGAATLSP
T1 chain 2: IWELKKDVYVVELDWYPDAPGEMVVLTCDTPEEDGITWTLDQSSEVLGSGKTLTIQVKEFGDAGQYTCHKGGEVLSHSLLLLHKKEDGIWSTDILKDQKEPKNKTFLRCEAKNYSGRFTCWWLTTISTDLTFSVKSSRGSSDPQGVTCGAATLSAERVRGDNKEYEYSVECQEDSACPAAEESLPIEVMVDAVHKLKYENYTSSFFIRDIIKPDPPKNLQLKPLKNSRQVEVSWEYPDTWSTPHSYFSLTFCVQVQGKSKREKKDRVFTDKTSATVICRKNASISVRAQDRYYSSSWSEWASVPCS
Kind of experiment: Biacore; eBiosc hIL23. (In general: Surface plasmon resonance follows binding to a sensor surface in real time, without labels.)

Experiment [2] has as its target T1, recombinant human IL-23 (p19/p40). In words: alpha-screen hIL-23/hIL-23R; Fig 6. A general note: Alpha assays give light when donor and acceptor beads are brought close together.
Experiment [3] deals with T2, recombinant human IL-12 (human, UniProt P29459 23-219; P29460 23-328).
T2 chain 1: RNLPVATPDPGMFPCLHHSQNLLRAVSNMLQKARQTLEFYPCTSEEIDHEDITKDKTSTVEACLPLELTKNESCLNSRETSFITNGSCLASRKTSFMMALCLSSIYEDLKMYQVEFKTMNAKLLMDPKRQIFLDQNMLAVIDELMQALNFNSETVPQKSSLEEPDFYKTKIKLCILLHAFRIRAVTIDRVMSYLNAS
T2 chain 2: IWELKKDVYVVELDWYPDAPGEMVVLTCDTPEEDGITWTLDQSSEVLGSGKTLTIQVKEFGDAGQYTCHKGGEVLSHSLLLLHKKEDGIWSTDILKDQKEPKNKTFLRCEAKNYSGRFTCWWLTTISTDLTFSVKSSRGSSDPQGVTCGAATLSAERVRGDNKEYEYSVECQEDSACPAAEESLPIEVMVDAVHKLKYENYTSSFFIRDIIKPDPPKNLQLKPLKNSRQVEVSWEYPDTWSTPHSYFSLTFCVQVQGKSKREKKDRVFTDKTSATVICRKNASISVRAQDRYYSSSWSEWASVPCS
In words: Biacore.

In experiment [4] the target is T1, recombinant human IL-23 (p19/p40). Kind of experiment: alpha-screen hIL-23/hIL-23R; Fig 7.
The target in experiment [5] is T2, recombinant human IL-12. In words: Biacore.

Where two headings read alike, the source gives them in different places.

B1: P23IL81A12 (VHH)
VHH: EVQLVESGGGLVQAGGSLRLSCAASGRTLSSYAMGWFRQAPGKEREFVARISQGGTAIYYADSVKGRFTISRDNAKNTVYLQMNSLKPEDTAVYYCAKDPSPYYRGSAYLLSGSYDSWGQGTQVTVSS
For the molecule B1, the off-rate constant (koff) in experiment [1] stood at 0.000113 s⁻¹.

B2: 121A2-119G7 (antibody)
chain: EVQLVESGGGLVQAGGSLRLSCAASGSIFNFNYMGWFRQAPGKEREFVAAIRWSGSSTYYADSVKGRFTISRDDAKNTVALQMNSLKPEDTAIYYCALRKGIPYSTSDRVIKGVNDYDYWGQGTQVTVSSGGGGSGGGGSGGGGSGGGGSGGGGSGGGGSGGGGSEVQLVESGGGLVQAGGSLTLSCAVSGLTFNNYAMGWFRQVPGKEREFVAAISRSGLRTFYSDSVKGRFTISRDSAKSTVYVQMNNLKPEDTAVYFCAADRRTYYSEGPSLTDTLRYDYWGQGTQVTVSS
For B2, the 50% inhibitory concentration (IC50) in experiment [2] came out at 131 pM.

B3: P23IL3C1 (VHH)
VHH: EVQLVESGGGSVQAGGSLRLSCKVSGIMFSDKGMGWFRQAPGKERETVAATNWSGGSTYYADSVKGRFTISRDNYKNTLHLQMASLKPEDTGIYYCAAAGDSWNSRRIEDYDYWGQGTPVTVSS
As to B3, the off-rate constant (koff) with recombinant human IL-12 [3] stood at 0.000279 s⁻¹.

B4: 119A3-119G7 (antibody)
chain: EVQLVESGGGLVQAGGSLRLSCAASGRIFSLPASGNIFNLLTIAWHRQAPGMQRELVATINSGSRTNYADSVKGRFTISRDNAQKTVYLQMNNLKPEDTAVYYCQTSGSGSPNFWGQGTQVTVSSGGGGSGGGGSGGGGSGGGGSGGGGSGGGGSGGGGSEVQLVESGGGLVQAGGSLTLSCAVSGLTFNNYAMGWFRQVPGKEREFVAAISRSGLRTFYSDSVKGRFTISRDSAKSTVYVQMNNLKPEDTAVYFCAADRRTYYSEGPSLTDTLRYDYWGQGTQVTVSS
With B4, the concentration for half-maximal inhibition (IC50) in experiment [4] was found to be 132 pM.

B5: P23IL3B8 (VHH)
VHH: EVQLVESGGGLVQPGGSLRLSCAASGFTFSSSVMFWLRQAPGKGLEWLSTIKPTGSTIYPGSGKGRFTISRDNAKNTLYLQINNLKPEDTALYYCARDIGGTVRGQGTQVTVSS
Regarding B5, the koff in the experiment with recombinant human IL-12 [3] stood at 0.00243 s⁻¹.

B6: P23IL-121A2 (VHH)
VHH: EVQLVESGGGLVQAGGSLRLSCAASGSIFNFNYMGWFRQAPGKEREFVAAIRWSGSSTYYADSVKGRFTISRDDAKNTVALQMNSLKPEDTAIYYCALRKGIPYSTSDRVIKGVNDYDYWGQGTQVTVSS
Regarding B6, the IC50 in experiment [2] amounted to 299 pM; in experiment [4], 270 pM.

B7: P23IL81E10 (VHH)
VHH: EVQLVESGGGLVQAGGSLRLSCVASGRTFNTYGMGWFRQAPGKEREFVAANNWSGGATSYADSVKGRFTISRDNAKNTVFLQMNTLKPEDTAVYYCAAADRGGGWLVVRENDYDYWGQGTQVTVSS
Regarding B7, the off-rate constant (koff) in the experiment with recombinant human IL-12 [3] and with recombinant human IL-12 [5] was 0.00266 s⁻¹ throughout.

B8: P23IL3G10 (VHH)
VHH: EVQLVESGGGVVQAGESLRLSCAASGYNVKDYEMGWFRQAPGMEREFAAAISWRGSSTYYADSVKGRFTISRDNAKNTVYLQMSSLKPEDTAVYYCAAGRLYPSSRSRDYDYWGQGTQVTVSS
For the molecule B8, the koff in the experiment with recombinant human IL-12 [3] came to 0.00244 s⁻¹.

B9: P23IL119A3 (VHH)
VHH: EVQLVESGGGLVQAGGSLRLSCAASGRIFSLPASGNIFNLLTIAWHRQAPGMQRELVATINSGSRTNYADSVKGRFTISRDNAQKTVYLQMNNLKPEDTAVYYCQTSGSGSPNFWGQGTQVTVSS
For B9, in experiment [4], the 50% inhibitory concentration (IC50) was 670 pM.

B10: P23IL81G2 (VHH)
VHH: EVQLVESGGGLVQPGGSLRLSCIASGLPFSTKSMGWFRQAPGKEREFVARISPGGTSRYYGDFVKGRFAISRDNAKNTTWLQMNSLKAEDTAVYYCASGERSTYIGSNYYRTNEYDYWGTGTQVTVSS
As to B10, the off-rate (koff) in experiment [1] came to 0.000257 s⁻¹.

B11: P23IL 3F11 (VHH)
VHH: EVQLVESGGGLVQAGGSLRLSCAASGSIFSINAMGWFRQAPGKERQFVAAINWSTGSTYYSDSVKGRFTISRDNAKNTVYLQMNSLKPEDTAVYFCASGYLFPSSRGSQYDYWGQGTQVTVSS
For B11, the koff in the experiment with recombinant human IL-12 [3] came to 0.00134 s⁻¹.

B12: P23IL119G7 (VHH)
VHH: EVQLVESGGGLVQAGGSLTLSCAVSGLTFNNYAMGWFRQVPGKEREFVAAISRSGLRTFYSDSVKGRFTISRDSAKSTVYVQMNNLKPEDTAVYFCAADRRTYYSEGPSLTDTLRYDYWGQGTQVTVSS
In the case of B12, the off-rate constant (koff) in experiment [1] stood at 0.000479 s⁻¹.

The term koff denotes the rate constant with which the complex falls apart. Usually IC50 stands for the concentration needed to halve the response being measured.
